In data set [1] the target is A1/A3-C1-C2 heterodimer of thrombin-cleaved FVIII (human) (UniProt P00451). Description: optical biosensor, after thrombin cleavage of purified protein.
The target of data set [2] is IR8 (90/b/73 R336I/R562K/R740A; del795-1688/Arg336Iso/Arg562Lys/Arg740Ala) (human) (UniProt P00451). Description: cell-based or functional assay.
Data set [3] addresses wild-type FVIII (human) (UniProt P00451). Kind of data set: cell-based or functional assay.
Data set [4] deals with von Willebrand factor (vWF) (human) (UniProt P04275). Kind of data set: ELISA and affinity biosensor analysis. On the technique in general: In an ELISA, binding on a coated surface is turned into a signal by an enzyme label.
For data set [5] the target is unchanged. Kind of data set: summary of ELISA and biosensor results.
The target is the same in data set [6]. Kind of data set: FVIII-vWF binding ELISA; anti-A2 domain trap, vWF from FVIII-deficient plasma, peroxidase anti-vWF detection.
The target is the same in data set [7]. Description: in vitro binding to vWF; method not given.
The target in data set [8] is FVIII mutant L/L 2251/2252 L/S (L2252S) (UniProt P00451).
The target in data set [9] is FVIII mutant M/F 2199/2200 W/W (UniProt P00451).
Data set [10] concerns the target FVIII mutant M/F/L 2199/2200/2252 W/W/S (UniProt P00451).
Data set [11] addresses IR8 (90/b/73 R336I/R562K/R740A; del795-1688/Arg336Iso/Arg562Lys/Arg740Ala) (human) (UniProt P00451). Kind of data set: biosensor; IR8 (30 nM) captured on immobilised Mab NMC-VIII/5, vWF added at 10 nM.

From patent publication US20120028900A1 come the findings set out here.

Bounds are passed on as bounds.

“A2 subunit of thrombin-cleaved R698L B-domainless FVIII (from UniProt P00451 392-759)” yielded a fold increased rate of A2 subunit dissociation compared to a B domainless FVIII control in data set [1] of 2 fold.
For the substance “A2 subunit of thrombin-cleaved R698W B-domainless FVIII (from UniProt P00451 392-759)”, the fold increased rate of A2 subunit dissociation compared to a B domainless FVIII control in [1] came out at 3 fold.
“ESH8, mouse monoclonal anti-light chain factor VIII antibody (American Diagnostica)”: the % Of Initial Activity, +ESH8 (APTT after 4 hour incubation at 37 C with FVIII-deficient plasma) in [2] was determined as 120%; in data set [3] it was 29%.
In data set [4], “IR8 (90/b/73 R336I/R562K/R740A; del795-1688/Arg336Iso/Arg562Lys/Arg740Ala) (from UniProt P00451 20-812; P00451 1708-2351)” came in with a fold reduced affinity compared to rFVIII of 20 fold. In data set [5], the fold lower affinity than FVIII WT is > 10 fold. This substance gave a fold lower binding affinity compared to wild-type FVIII in data set [6] of 10 fold.
Regarding “IR8/ESH8 complex (from UniProt P00451 20-812; P00451 1708-2351)”, in data set [7], the equilibrium dissociation constant (Kd) came out at 1.3 nM. The substance also had a fold lower binding affinity compared to wild-type FVIII in data set [6] of 2 fold.
For factor IXa, the “apparent affinity for factor IXa, Xase assay with 15% PS” value in data set [8], in [9] and in [10] was “reduced 5-fold” throughout. For the same substance, the “apparent affinity of factor IXa, Xase assay with saturating PL, 1000 uM” value in data set [8], in data set [9] and in data set [10] was “decreased approximately 4-fold” in each case.
In the case of “von Willebrand factor (vWF) (from UniProt P04275 764-2813)”, in [11], the Kd is 29.6 nM, the koff was determined as 0.0042 s⁻¹ and the on-rate constant (kon) came out at 140000 M⁻¹ s⁻¹.
For “wild-type FVIII (from UniProt P00451 20-2351)”, the equilibrium dissociation constant (Kd) in data set [7] is 0.3 nM.

The term Kd denotes the constant that tells how readily two partners part at equilibrium. Broadly, the koff is the first-order rate constant of dissociation. Lower therefore signals slow dissociation. Usually kon stands for the rate constant with which the complex forms. Higher therefore signals faster complex formation.
